Test results reported in patent US20090137003A1.

B1: Fab fragment of antibody clone 859 (Fab)
VH: QVQLVESGGGVVQPGRSLRLSCAVSGSSFSKYGIHWVRQAPGKGLEWVAVISYDGSKKYFTDSVKGRFTIARDNSQNTVFLQMNSLRAEDTAVYYCATGGGVNVTSWSDVEHSSSLGYWGLGTLVTVSS
light: DIQMTQSPSSLSASVGDRVTITCRASQGIRNYLAWYQQKPGKVPKLLVFAASTLQSGVPSRFSGSGSGTDFTLTISSLQPEDVATYYCQRYNSAPLTFGGGTKVEIKRTVAAPSVFIFPPSDEQLKSGTASVVCLLNNFYPREAKVQWKVDNALQSGNSQESVTEQDSKDSTYSLSSTLTLSKADYEKHKVYACEVTHQGLSSPVTKSFNRGEC
B2: antibody clone 880 (antibody, human IgG1, kappa, V domains shown)
VH: QITLKESGPTLVRPTQTLTLTCTFSGFSLSTSKLGVGWIRQPPGKALEWLALVDWDDDRRYRPSLKSRLTVTKDTSKNQVVLTMTNMDPVDTATYYCAHSAYYTSSGYYLQYFHHWGPGTLVTVSS
VL: DIQMTQSPSSLAASVGDRVTITCRASQTIASYVNWYQQKPGKAPNLLIYAASSLQSGVPSRFSGSGSGTDFTLTISSLQPEDFASYFCQQSYSFPYTFGQGTKLDIKR
B3: antibody clone 800 (antibody, human IgG1, kappa, V domains shown)
VH: QVQLVESGGAVVQPGRSLRLSCEVSGFSFSDYGMNWVRQGPGKGLEWVAVIWHDGSNKNYLDSVKGRFTVSRDNSKNTLFLQMNSLRAEDTAVYYCARTPYEFWSGYYFDFWGQGTLVTVSS
VL: AIQLTQSPSSLSASVGDRVTLTCRASQGITDSLAWYQQKPGKAPKVLLYAASRLESGVPSRFSGRGSGTDFTLTISSLQPEDFATYYCQQYSKSPATFGPGTKVEIRR
B4: antibody clone 827 (antibody, human IgG1, kappa, V domains shown)
VH: QVQLVQSGAEVKKPGASVKVSCRVSGHTFTALSKHWMRQGPGGGLEWMGFFDPEDGDTGYAQKFQGRVTMTEDTATGTAYMELSSLTSDDTAVYYCATVAAAGNFDNWGQGTLVTVSS
VL: DIQMTQSPSSLAASVGDRVTITCRASQFISSYLHWYQQRPGKAPKLLMYAASTLQSGVPSRFSGSGSGTDFTLTISSLQPEDFATYYCQQSYTNPYTFGQGTKLEIKR
B5: Fab fragment of antibody clone 816 (Fab)
VH: EVQLLESGGGLVQPGGSLRLSCVASGFTFSTYAMTWVRQAPGKGLEWVSVIRASGDSEIYADSVRGRFTISRDNSKNTVFLQMDSLRVEDTAVYFCANIGQRRYCSGDHCYGHFDYWGQGTLVTVSS
light: DIVMTQSPLSLPVTPGEPASISCRSSQSLLHSDGRYYVDWYLQKPGQSPHLLIYLASNRASGVPDRFTGSGSGTDFTLKISRVEAEDVGVYYCMQGLHTPWTFGQGTKVDIKRTVAAPSVFIFPPSDEQLKSGTASVVCLLNNFYPREAKVQWKVDNALQSGNSQESVTEQDSKDSTYSLSSTLTLSKADYEKHKVYACEVTHQGLSSPVTKSFNRGEC
B6: Fab fragment of antibody clone 796 (Fab)
VH: QVQLVESGGGVVQPGRSLRLSCAASGFSFSHFGMHWVRQVPGKGLEWVAIISYDGNNVHYADSVKGRFTISRDNSKNTLFLQMNSLRDDDTGVYYCAKDDVATDLAAYYYFDVWGRGTLVTVSS
light: DIVMTQTPLSLSVTPGQPASISCRSSQSLLRSDGKTFLYWYLQKPGQSPQPLMYEVSSRFSGVPDRFSGSGSGADFTLNISRVETEDVGIYYCMQGLKIRRTFGPGTKVEIKRTVAAPSVFIFPPSDEQLKSGTASVVCLLNNFYPREAKVQWKVDNALQSGNSQESVTEQDSKDSTYSLSSTLTLSKADYEKHKVYACEVTHQGLSSPVTKSFNRGEC
B7: antibody clone 831 (antibody, human IgG1, kappa, V domains shown)
VH: QVQLVQSGAEVKKPGASVKVSCKASANIFTYAMHWVRQAPGQRLEWMGWINVGNGQTKYSQRFQGRVTITRDTSATTAYMELSTLRSEDTAVYYCARRASQYGEVYGNYFDYWGQGTLVTVSS
VL: DIQMTQSPSTLSASVGDRLTITCRASQNIYNWLAWYQQKPGKAPKLLIYDASTLESGVPSRFSGSGSGTEFTLTISSLQPDDFATYYCQQYNSLSPTFGQGTKVEIKR
B8: antibody clone 894 (antibody, human IgG1, kappa, V domains shown)
VH: QVQLVESGGGVVQPGKSLRLSCAASGFRFSDYGMHWVRQAPSKGLEWVAVIWHDGSNIRYADSVRGRFSISRDNSKNTLYLQMNSMRADDTAFYYCARVPFQIWSGLYFDHWGQGTLVTVSS
VL: EIVMTQSPATLSVSPGERATLSCRASQSVGNNLAWYQQRPGQAPRLLIYGASTRATGIPARFSGSGSGTEFTLTISSLQSEDFAVYYCQQYDKWPETFGQGTKVDIKR
B9: antibody clone 818 (antibody, human IgG1, kappa, V domains shown)
VH: QVTLRESGPAVVKPTETLTLTCAFSGFSLNAGRVGVSWIRQPPGQAPEWLARIDWDDDKAFRTSLKTRLSISKDSSKNQVVLTLSNMDPADTATYYCARTQVFASGGYYLYYLDHWGQGTLVTVSS
VL: DIQMTQSPSSLSASVGDRVTITCRASQTIASYVNWYQQKPGRAPSLLIYAASNLQSGVPPRFSGSGSGTDFTLTISGLQPDDFATYYCQQSYSYRALTFGGGTKVEIKR
B10: Fab fragment of antibody clone 853 (Fab)
VH: EVQLVQSGAEVKKPGQSLKISCKTSGYIFTNYWIGWVRQRPGKGLEWMGVIFPADSDARYSPSFQGQVTISADKSIGTAYLQWSSLKASDTAIYYCARPKYYFDSSGQFSEMYYFDFWGQGTLVTVSS
light: EIVLTQSPGTLSLSPGERATLSCRASQSVSSNYLAWYQQKPGQAPRLLIYGASSRAAGMPDRFSGSGSGTDFTLTISRLEPEDFAVYYCQQYGNSPLTFGGGTEVEIKRTVAAPSVFIFPPSDEQLKSGTASVVCLLNNFYPREAKVQWKVDNALQSGNSQESVTEQDSKDSTYSLSSTLTLSKADYEKHKVYACEVTHQGLSSPVTKSFNRGEC

How the values were obtained:
[1] = target: RSV protein G (recombinant G protein) (respiratory syncytial virus (RSV), strain not stated); test: SPR (Biacore), Fab on recombinant antigen
[2] = target: RSV protein F of strain B Wash/18537 (RSV B Wash/18537 (ATCC number VR-1580)) (UniProt P13843); test: cell-based or functional assay
[3] = target: RSV protein F of strain B1 (RSV B1 (ATCC number VR-1400)) (UniProt O36634); test: cell-based or functional assay
[4] = target: RSV protein F of strain Long (RSV Long (ATCC number VR-26)) (UniProt P12568); test: cell-based or functional assay
Sequence of RSV protein F of strain Long (RSV Long (ATCC number VR-26)) (P12568 26-574): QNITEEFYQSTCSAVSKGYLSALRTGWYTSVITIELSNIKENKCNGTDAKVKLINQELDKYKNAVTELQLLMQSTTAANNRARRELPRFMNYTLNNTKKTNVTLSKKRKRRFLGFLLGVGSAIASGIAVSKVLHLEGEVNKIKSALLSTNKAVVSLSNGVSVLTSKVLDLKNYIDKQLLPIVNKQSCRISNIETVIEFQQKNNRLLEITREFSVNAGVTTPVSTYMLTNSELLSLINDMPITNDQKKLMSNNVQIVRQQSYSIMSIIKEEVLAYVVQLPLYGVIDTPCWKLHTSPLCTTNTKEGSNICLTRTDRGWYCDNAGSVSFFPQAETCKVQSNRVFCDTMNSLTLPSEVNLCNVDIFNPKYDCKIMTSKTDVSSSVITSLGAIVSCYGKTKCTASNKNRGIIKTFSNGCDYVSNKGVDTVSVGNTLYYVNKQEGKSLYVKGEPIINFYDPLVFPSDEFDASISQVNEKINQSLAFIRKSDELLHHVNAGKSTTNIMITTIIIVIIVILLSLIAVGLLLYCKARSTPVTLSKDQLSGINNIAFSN

Sequence of RSV protein F of strain B1 (RSV B1 (ATCC number VR-1400)) (O36634 26-574 limits assumed): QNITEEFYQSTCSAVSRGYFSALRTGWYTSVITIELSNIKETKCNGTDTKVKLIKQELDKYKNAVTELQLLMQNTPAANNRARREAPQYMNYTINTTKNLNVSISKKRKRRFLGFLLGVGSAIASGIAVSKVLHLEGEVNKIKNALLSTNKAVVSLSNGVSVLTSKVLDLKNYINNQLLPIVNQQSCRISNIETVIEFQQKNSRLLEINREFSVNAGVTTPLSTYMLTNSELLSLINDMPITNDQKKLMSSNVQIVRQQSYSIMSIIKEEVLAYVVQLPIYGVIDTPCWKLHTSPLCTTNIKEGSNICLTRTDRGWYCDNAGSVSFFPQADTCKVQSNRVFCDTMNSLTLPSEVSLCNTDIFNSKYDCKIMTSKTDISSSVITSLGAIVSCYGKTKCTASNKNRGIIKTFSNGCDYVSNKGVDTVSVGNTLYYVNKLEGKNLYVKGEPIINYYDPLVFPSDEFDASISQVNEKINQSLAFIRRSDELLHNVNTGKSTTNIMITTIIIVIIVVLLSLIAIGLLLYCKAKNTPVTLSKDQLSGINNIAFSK
Sequence of RSV protein F of strain B Wash/18537 (RSV B Wash/18537 (ATCC number VR-1580)) (P13843 26-574): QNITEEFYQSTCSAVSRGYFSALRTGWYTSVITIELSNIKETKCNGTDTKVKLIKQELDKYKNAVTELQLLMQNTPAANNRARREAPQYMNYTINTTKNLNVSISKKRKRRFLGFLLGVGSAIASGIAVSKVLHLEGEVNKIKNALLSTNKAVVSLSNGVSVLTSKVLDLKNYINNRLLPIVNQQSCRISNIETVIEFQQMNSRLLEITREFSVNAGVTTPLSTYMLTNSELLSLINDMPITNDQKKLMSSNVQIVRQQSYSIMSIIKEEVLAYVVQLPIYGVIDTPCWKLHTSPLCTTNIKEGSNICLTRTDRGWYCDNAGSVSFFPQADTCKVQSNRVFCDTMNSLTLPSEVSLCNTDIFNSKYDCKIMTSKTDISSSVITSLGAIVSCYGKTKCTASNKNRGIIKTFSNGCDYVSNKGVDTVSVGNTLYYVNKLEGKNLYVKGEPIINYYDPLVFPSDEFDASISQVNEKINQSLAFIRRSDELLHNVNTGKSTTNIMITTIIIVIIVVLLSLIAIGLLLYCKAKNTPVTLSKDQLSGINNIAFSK

Row | Binder | Kd [1] [nM] | koff [1] [s⁻¹] | kon [1] [M⁻¹ s⁻¹] | t1/2 [1] [min] | PRNT EC50 with complement, RSV 18537 [2] [mg/L] | PRNT EC50 with complement, RSV B1 [3] [mg/L] | PRNT EC50 with complement, RSV Long [4] [mg/L]
1 | B1 | 0.12 | 4.63e-05 | 380000 | 250 |  |  | 
2 | B2 |  |  |  |  | 0.95 | 0.4 | 0.38
3 | B3 |  |  |  |  |  | 0.16 | 0.15
4 | B4 |  |  |  |  | 0.1 |  | 0.16
5 | B5 | 0.09 | 0.000178 | 2.02e+06 | 65 |  |  | 
6 | B6 | 0.48 | 0.000403 | 833000 | 28.7 |  |  | 
7 | B7 |  |  |  |  | 0.72 | 1.66 | 0.08
8 | B8 |  |  |  |  | 0.07 |  | 0.08
9 | B9 |  |  |  |  | 0.21 |  | 0.15
10 | B10 | 0.79 | 0.0014 | 1.77e+06 | 8.25 |  |  | 
